Data as given in paper PMC3063151 (The Journal of neuroscience : the official journal of the …, 2011).

B1: GluN1-NTD-Y109C, purified (gel filtration and negative stain EM) (domain or fragment)
chain: not shown
B2: GluN1-NTD (crystallised; from GluN1-NTD-8His) (domain or fragment)
chain: not shown
modifications: N-linked N-acetyl glucosamine at N61, N203, N239, N276 and N300 (EndoH treated)

Legend:
SEC = molecular target: the molecule itself; experiment: SEC
crystal structure = molecular target: the molecule itself; experiment: crystal structure

| Protein | stoichiometry N (SEC) | binding result (crystal structure) |
| --- | --- | --- |
| B1 | 2 |  |
| B2 |  | binds |
